What was measured:
[1] = target: basigin ectodomain (human); assay: MST; Alexa Fluor 488-labelled BSG^ecto held at 0.25 µM; PfRH5 or PfRCR titrated 8 µM to 3.91 nM; 20 mM Tris pH 8.0, 200 mM NaCl, 1 mg/ml salmon sperm DNA, 0.01% Tween-20; 25 °C
[2] = target: full-length human basigin (human); assay: MST; Alexa Fluor 488-labelled full-length basigin held at 0.1 µM; PfRH5 or PfRCR titrated 2 µM to 0.12 nM; 20 mM Tris pH 8.0, 200 mM NaCl, 1 mg/ml salmon sperm DNA, 0.02% DDM; 25 °C

How did the Kd [1] turn out when PfRH5 (natural protein) was run?
Its Kd is 190 nM.

What about the Kd [2] of the same substance?
The Kd was 120 nM.

— paper PMC10794152
